Reference: article PMC8617076, “Structure of HIV-1 Vpr in complex with the human nucleotide excision repair protein hHR23A” (Nature Communications, 2021)

Experiments:
Details in all cases: both partners purified
[1] = target: T1, GST-hHR23B, residues 262–409 (human, UniProt P54727 262-409); assay: pull-down; 1000 pmol GST-tagged hHR23A/B and 1000 pmol NusA–VprFL in 500 μl PBS, 30 min 4 °C; TEV cleavage overnight at 4 °C; Glutathion-Sepharose 4B beads; anti-His immunoblot
T1 construct: human hHR23B, residues 262–409; also called C-terminal half of hHR23B; source: recombinant
T1 sequence (looked up): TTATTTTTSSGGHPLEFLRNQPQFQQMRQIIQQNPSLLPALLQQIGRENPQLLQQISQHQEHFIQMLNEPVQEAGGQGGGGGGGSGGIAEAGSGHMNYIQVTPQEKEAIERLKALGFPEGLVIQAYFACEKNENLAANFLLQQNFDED

[2] = target: T2, GST-hHR23A, residues 1–363 (WT hHR23AFL) (human, UniProt P54725 1-363); assay: as above
T2 construct: human hHR23A, full length, residues 1–363; also called GST-tagged WT hHR23A; source: recombinant
T2 sequence (looked up): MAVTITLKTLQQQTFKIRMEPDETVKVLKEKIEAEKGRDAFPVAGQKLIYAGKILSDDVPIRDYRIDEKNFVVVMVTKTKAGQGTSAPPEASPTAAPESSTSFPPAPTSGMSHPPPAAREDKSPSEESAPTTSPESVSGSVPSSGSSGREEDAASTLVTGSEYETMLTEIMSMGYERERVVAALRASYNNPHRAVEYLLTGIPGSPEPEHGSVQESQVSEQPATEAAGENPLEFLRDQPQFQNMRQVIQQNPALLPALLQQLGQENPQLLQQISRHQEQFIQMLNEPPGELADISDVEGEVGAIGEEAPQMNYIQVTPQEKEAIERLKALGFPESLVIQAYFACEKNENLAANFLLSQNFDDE

[3] = target: T3, GST-hHR23B, residues 1–409 (human, UniProt P54727 1-409); assay: as above
T3 construct: human hHR23B, residues 1–409; source: recombinant
T3 sequence (looked up): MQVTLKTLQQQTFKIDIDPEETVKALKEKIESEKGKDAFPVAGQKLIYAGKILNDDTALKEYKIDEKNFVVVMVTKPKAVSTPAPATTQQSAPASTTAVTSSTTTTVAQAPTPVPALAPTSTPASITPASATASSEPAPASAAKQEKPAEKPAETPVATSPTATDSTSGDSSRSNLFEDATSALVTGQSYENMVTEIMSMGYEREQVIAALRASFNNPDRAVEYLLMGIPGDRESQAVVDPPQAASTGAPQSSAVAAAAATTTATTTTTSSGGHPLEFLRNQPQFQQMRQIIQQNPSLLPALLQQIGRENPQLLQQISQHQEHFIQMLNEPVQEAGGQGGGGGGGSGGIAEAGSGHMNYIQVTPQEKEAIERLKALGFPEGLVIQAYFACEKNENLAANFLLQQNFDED

Trx-hHR23AFL = target: T4, Trx-hHR23AFL (human, UniProt P54725 1-363); assay: ITC; NusA–Vpr1–79 (8.5 µM) in the cell, Trx-hHR23AFL or DCAF1 1045–1396/DDB1 (100 μM) added in aliquots; 18 °C; 20 mM sodium phosphate pH 7.4, 100 mM NaCl
T4 construct: human hHR23A, full length (FL); source: E. coli Rosetta 2 (DE3) or Rosetta 2 (DE3) pLysS, purified (HisTrap, gel filtration)
T4 sequence (looked up): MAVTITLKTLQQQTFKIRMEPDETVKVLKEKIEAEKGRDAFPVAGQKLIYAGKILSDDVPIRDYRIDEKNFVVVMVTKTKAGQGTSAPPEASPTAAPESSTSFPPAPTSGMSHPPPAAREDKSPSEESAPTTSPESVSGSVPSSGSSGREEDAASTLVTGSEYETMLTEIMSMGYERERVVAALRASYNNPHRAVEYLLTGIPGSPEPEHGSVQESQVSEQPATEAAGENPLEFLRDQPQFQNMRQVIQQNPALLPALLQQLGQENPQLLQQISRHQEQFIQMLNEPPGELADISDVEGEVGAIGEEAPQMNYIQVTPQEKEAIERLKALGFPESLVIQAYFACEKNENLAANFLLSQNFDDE

DCAF1_(1045–1396)/DDB1 = target: T5, DCAF1_(1045–1396)/DDB1 (UniProt Q9Y4B6 1045-1396; Q16531 1-1140); assay: as above
T5 construct: DCAF1, residues 1045-1396; DDB1
T5 sequence (Q9Y4B6 1045-1396, chain 1 of 2): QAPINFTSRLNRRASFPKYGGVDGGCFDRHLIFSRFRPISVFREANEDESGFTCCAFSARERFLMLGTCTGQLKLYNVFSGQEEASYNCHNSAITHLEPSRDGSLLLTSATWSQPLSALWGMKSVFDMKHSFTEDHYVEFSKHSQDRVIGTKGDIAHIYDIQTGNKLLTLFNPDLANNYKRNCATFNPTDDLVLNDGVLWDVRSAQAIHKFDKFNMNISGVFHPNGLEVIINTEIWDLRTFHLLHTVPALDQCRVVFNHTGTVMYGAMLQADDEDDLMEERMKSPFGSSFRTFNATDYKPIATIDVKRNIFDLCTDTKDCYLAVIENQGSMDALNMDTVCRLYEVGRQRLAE
T5 sequence (Q16531 whole entry, chain 2 of 2, the tested form may be a part): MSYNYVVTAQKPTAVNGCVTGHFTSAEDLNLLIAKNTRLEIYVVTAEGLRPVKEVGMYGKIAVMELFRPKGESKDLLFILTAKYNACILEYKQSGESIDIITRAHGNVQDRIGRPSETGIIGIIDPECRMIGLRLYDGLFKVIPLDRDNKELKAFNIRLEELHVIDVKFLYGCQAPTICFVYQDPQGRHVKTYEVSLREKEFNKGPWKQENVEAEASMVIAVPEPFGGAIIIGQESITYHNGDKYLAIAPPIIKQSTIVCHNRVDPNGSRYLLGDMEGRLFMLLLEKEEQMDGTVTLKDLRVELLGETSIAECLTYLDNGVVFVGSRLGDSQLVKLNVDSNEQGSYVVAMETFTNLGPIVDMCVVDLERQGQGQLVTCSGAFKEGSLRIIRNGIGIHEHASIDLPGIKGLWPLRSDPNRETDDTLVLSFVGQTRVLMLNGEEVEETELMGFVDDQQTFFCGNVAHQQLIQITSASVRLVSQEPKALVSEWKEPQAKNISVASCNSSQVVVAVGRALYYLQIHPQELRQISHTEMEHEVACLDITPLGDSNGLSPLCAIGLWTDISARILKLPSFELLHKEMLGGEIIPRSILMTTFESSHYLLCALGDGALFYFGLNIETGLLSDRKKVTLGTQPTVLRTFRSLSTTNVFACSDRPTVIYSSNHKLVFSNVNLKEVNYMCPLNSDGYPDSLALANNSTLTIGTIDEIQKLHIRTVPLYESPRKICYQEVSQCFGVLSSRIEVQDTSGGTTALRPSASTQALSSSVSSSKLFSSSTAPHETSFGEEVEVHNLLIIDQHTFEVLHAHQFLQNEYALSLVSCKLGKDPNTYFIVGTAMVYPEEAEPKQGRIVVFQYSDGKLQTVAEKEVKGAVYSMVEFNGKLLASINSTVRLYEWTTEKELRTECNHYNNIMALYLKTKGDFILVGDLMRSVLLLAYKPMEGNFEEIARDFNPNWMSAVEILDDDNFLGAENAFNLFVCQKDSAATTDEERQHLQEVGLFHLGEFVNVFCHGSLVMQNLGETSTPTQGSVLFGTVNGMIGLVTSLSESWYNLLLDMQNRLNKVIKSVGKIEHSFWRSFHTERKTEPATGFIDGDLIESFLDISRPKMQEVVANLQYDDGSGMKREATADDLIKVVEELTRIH

B1: recombinant VprFL (from NusA–VprFL) (natural protein)
chain: MEQAPEDQGPQREPYNEWTLELLEELKSEAVRHFPRIWLHNLGQHIYETYGDTWAGVEAIIRILQQLLFIHFRIGCRHSRIGVTRQRRARNGASRS
notes: HIV-1 Vpr, full length (FL); also called VprFL WT; source: recombinant NusA–VprFL
binding result [1]: binds
binding result [2]: binds
binding result [3]: binds

B2: recombinant VprFL H45A (natural protein)
chain: MEQAPEDQGPQREPYNEWTLELLEELKSEAVRHFPRIWLHNLGQAIYETYGDTWAGVEAIIRILQQLLFIHFRIGCRHSRIGVTRQRRARNGASRS
notes: HIV-1 Vpr, full length, with H45A; source: recombinant NusA–VprFL
binding result [2]: binds

B3: recombinant VprFL L67A/I70A (natural protein)
chain: MEQAPEDQGPQREPYNEWTLELLEELKSEAVRHFPRIWLHNLGQHIYETYGDTWAGVEAIIRILQQALFAHFRIGCRHSRIGVTRQRRARNGASRS
notes: HIV-1 Vpr, full length, with L67A and I70A; also called L67A/I70A double mutant; source: recombinant NusA–VprFL
binding result [2]: binds

B4: recombinant VprFL R73A (natural protein)
chain: MEQAPEDQGPQREPYNEWTLELLEELKSEAVRHFPRIWLHNLGQHIYETYGDTWAGVEAIIRILQQLLFIHFAIGCRHSRIGVTRQRRARNGASRS
notes: HIV-1 Vpr, full length, with R73A; source: recombinant NusA–VprFL
binding result [2]: binds

B5: recombinant VprFL Y50S (natural protein)
chain: MEQAPEDQGPQREPYNEWTLELLEELKSEAVRHFPRIWLHNLGQHIYETSGDTWAGVEAIIRILQQLLFIHFRIGCRHSRIGVTRQRRARNGASRS
notes: HIV-1 Vpr, full length, with Y50S; source: recombinant NusA–VprFL
binding result [2]: binds

B6: NusA–Vpr_(1–79) (domain or fragment)
chain: MEQAPEDQGPQREPYNEWTLELLEELKSEAVRHFPRIWLHNLGQHIYETYGDTWAGVEAIIRILQQLLFIHFRIGCRHS
notes: HIV-1 Vpr, residues 1-79; source: E. coli Rosetta 2 (DE3) or Rosetta 2 (DE3) pLysS, purified (HisTrap, gel filtration)
Kd (Trx-hHR23AFL): 640 ± 408 nM
Kd (DCAF1_(1045–1396)/DDB1): 116 ± 47 nM
